Assay results taken from publication PMC10031466, “The ROK kinase N-acetylglucosamine kinase uses a sequential random enzyme mechanism with successive conformational changes upon each substrate binding” (The Journal of Biological Chemistry, 2023).

B1: N-acetylglucosamine kinase (PsNagK) (Plesiomonas shigelloides 302-73) (protein)
chain: MYYGFDIGGTKIEFGAFDADLVRVARERVATPTESYAAFLDAIVTLVNNADAEFGVKGTVGIGIPGIADVETGKLLTSNIPAAMGHTLQRDLEERLQRPVKIENDANCFALSEAWDEDLRGEPSVLGLILGTGVGGGLIFNGKVHSGRANIAGEIGHTRLPYDALKLLGMENAPIFPCGCKNSGCIDNYLSGRGFEQLYDHYFSEKLSAPEIIAHYEQGERRAVQHVERFMELLAICLANIFTCLDPHVVVLGGGLSNFELIYQELPKRLPAHLLHVAKLPKIIKARHGDAGGVRGAAFLNLA
notes: His-tagged protein
B2: N-acetylglucosamine kinase (NagK) (Vibrio vulnificus CMCP6) (protein)
chain: MYYGFDVGGTKIEFGAFNEKLERVATERVPTPTDDYPLLLETIAGLVAKYDQEFACEGKIGLGLPGMEDADDATVLTVNVPAAKGKPLRADLEAKIGRSVKIENDANCFALSEAWDEELQDAPSVMGLILGTGFGGGLIYEGKVFSGRNNVAGELGHMRLPLDAWFHLGDNAPLLGCGCGKKGCLDSYLSGRGFELLYAHYYGEEKKAIDIIKANAAGDEKAAEHVERFMELLAICFGNIFTANDPHVVALGGGLSNFELIYEEMPKRVPKYLLSVAKCPKIIKAKHGDSGGVRGAAFLNIKG

Key:
Assay in all cases: PK/LD coupled enzyme kinetics (KM app)
Settings in all cases: Mg2+
[1] = substrate: Nc1ncnc2c1ncn2[C@@H]1O[C@H](COP(=O)(O)OP(=O)(O)OP(=O)(O)O)[C@@H](O)[C@H]1O; type: biochemical, Plesiomonas shigelloides
[2] = substrate: CC(=O)N[C@@H]1[C@@H](O)[C@H](O)[C@@H](CO)O[C@@H]1O; type: biochemical, Vibrio vulnificus
[3] = substrate: Nc1ncnc2c1ncn2[C@@H]1O[C@H](COP(=O)(O)OP(=O)(O)OP(=O)(O)O)[C@@H](O)[C@H]1O; type: biochemical, Vibrio vulnificus

Protein	Km [1]	Km [2]	Km [3]
B1	290 ± 20 µM		
B2		210 ± 60 µM	41 ± 9 µM
